# Laboratory results published in PMC11796321, “Interleukin‐11 receptor is an alternative α‐receptor for interleukin‐6 and the chimeric cytokine IC7” (The Febs Journal, 2024).
# T1: recombinant his-tagged soluble human IL-11R (human, UniProt Q14626 24-370)
# T1 sequence (looked up): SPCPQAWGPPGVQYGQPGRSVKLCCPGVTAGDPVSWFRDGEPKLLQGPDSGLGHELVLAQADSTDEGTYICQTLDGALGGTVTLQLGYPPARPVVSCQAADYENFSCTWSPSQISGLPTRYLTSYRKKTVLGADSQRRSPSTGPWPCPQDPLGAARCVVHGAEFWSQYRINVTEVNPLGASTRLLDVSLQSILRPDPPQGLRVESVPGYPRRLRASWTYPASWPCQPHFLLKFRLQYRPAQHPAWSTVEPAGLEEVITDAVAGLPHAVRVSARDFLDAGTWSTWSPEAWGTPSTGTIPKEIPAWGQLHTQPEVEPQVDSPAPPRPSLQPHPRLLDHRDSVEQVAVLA
# T2: recombinant his-tagged soluble human IL-6R (human, UniProt P08887 20-365)
# T2 construct: soluble human IL-6 α-receptor; In functional rows this id also stands for hIL-6R expressed on Ba/F3 cells (whole receptor); the readout says so; also called sIL-6R; shIL-6R; source: bought: R&D Systems (cat. no. 10537)
# T2 sequence (looked up): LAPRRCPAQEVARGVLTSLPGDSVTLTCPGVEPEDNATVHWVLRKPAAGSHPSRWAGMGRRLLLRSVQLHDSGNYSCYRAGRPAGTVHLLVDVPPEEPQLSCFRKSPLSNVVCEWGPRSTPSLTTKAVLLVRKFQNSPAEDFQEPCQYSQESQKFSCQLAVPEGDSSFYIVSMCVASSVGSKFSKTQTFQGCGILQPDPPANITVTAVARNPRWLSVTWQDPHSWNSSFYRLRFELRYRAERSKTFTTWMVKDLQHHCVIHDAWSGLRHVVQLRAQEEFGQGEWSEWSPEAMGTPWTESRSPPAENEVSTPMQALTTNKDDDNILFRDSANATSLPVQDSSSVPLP
# B1: Twin-strep-tagged human IL-11 (ligand, UniProt P20809 22-199, looked up)
# chain: PGPPPGPPRVSPDPRAELDSTVLLTRSLLADTRQLAAQLRDKFPADGDHNLDSLPTLAMSAGALGALQLPGVLTRLRADLLSYLRHVQWLRRAGGSSLKTLEPELGTLQARLDRLLRRLQLLMSRLALPQPPPDPPAPPLAPPSSAWGGIRAAHAILGGLHLTLDWAVRGLLLLKTRL
# notes: human interleukin 11 (IL-11); A His-tagged hIL-11 from E. coli (hIL-11his) was used only in some Western blots of signalling, not in SPR; also called hIL-11ts; hIL-11
# B2: Hyper IL-11 (fusion protein of shIL-11R and hIL-11), Twin-Strep-tagged (other)
# chain: SSPCPQAWGPPGVQYGQPGRSVKLCCPGVTAGDPVSWFRDGEPKLLQGPDSGLGHELVLAQADSTDEGTYICQTLDGALGGTVTLQLGYPPARPVVSCQAADYENFSCTWSPSQISGLPTRYLTSYRKKTVLGADSQRRSPSTGPWPCPQDPLGAARCVVHGAEFWSQYRINVTEVNPLGASTRLLDVSLQSILRPDPPQGLRVESVPGYPRRLRASWTYPASWPCQPHFLLKFRLQYRPAQHPAWSTVEPAGLEEVITDAVAGLPHAVRVSARDFLDAGTWSTWSPEAWGTPSTGGGSGGGSPGPPPGPPRVSPDPRAELDSTVLLTRSLLADTRQLAAQLRDKFPADGDHNLDSLPTLAMSAGALGALQLPGVLTRLRADLLSYLRHVQWLRRAGGSSLKTLEPELGTLQARLDRLLRRLQLLMSRLALPQPPPDPPAPPLAPPSSAWGGIRAAHAILGGLHLTLDWAVRGLLLLKTRL
# B3: sgp130Fc (fusion protein of soluble hgp130 to the Fc-part of an IgG antibody) (Fc fusion, human, UniProt P40189 23-619, looked up)
# chain: ELLDPCGYISPESPVVQLHSNFTAVCVLKEKCMDYFHVNANYIVWKTNHFTIPKEQYTIINRTASSVTFTDIASLNIQLTCNILTFGQLEQNVYGITIISGLPPEKPKNLSCIVNEGKKMRCEWDGGRETHLETNFTLKSEWATHKFADCKAKRDTPTSCTVDYSTVYFVNIEVWVEAENALGKVTSDHINFDPVYKVKPNPPHNLSVINSEELSSILKLTWTNPSIKSVIILKYNIQYRTKDASTWSQIPPEDTASTRSSFTVQDLKPFTEYVFRIRCMKEDGKGYWSDWSEEASGITYEDRPSKAPSFWYKIDPSHTQGYRTVQLVWKTLPPFEANGKILDYEVTLTRWKSHLQNYTVNATKLTVNLTNDRYLATLTVRNLVGKSDAAVLTIPACDFQATHPVMDLKAFPKDNMLWVEWTTPRESVKKYILEWCVLSDKAPCITDWQQEDGTVHRTYLRGNLAESKCYLITVTPVYADGPGSPESIKAYLKQAPPSKGPTVRTKKVGKNEAVLEWDQLPVDVQNGFIRNYTIFYRTIIGNETAVNVDSSHTEYTLSSLTSDTLYMVRMAAYTDEGGKDGPEFTFTTPKFAQGEIE
# Columns and labels:
# [1] = target: T1, recombinant his-tagged soluble human …; assay: cell-based or functional assay
# [2] = target: T1, recombinant his-tagged soluble human …; assay: SPR; Biacore X100, multi-cycle, NTA sensor chip; his-tagged soluble hIL-6R or hIL-11R immobilised (100-250 RU per cycle); cytokines injected 133.33 to 0.183 nM, 30 uL/min, 180 s, dissociation 800 s; 25 °C, PBS with 0.05% P20 and 50 uM EDTA; two-state reaction fit; parameters: ka1 (two-state fit, first step) / ka2 (two-state fit, second step): unit not given here; conditions: both partners purified
# [3] = target: T2, recombinant his-tagged soluble human …; assay: as above; parameters: ka1 (two-state fit, first step) / ka2 (two-state fit, second step): unit not given here; conditions: both partners purified
# [4] = target: B3; assay: cell-based or functional assay
# [5] = target: B3; assay: SPR; Biacore X100, Protein A sensor chip; sgp130Fc captured via its Fc (200-300 RU per cycle); hyper-cytokines injected 30 uL/min, 120 s, dissociation 300 s (200-0.20 nM cHIL-6, 25-0.05 nM HIL-6, 50-0.62 nM HIL-11); 1:1 binding model; conditions: both partners purified
# [6] = target: chimeric Hyper-cytokine IL-6/sIL-11R (cHIL-6), Twin-Strep-tagged (human, UniProt Q14626 23-317); assay: cell-based or functional assay
# [7] = target: B2; assay: cell-based or functional assay
# [8] = target: Hyper IL-6 (fusion protein of human sIL-6R and human IL-6), Twin-Strep-tagged (human); assay: cell-based or functional assay
binder,measurement,setting,value
B1,"EC50 of proliferation of Ba/F3-hgp130-hIL-11R cells (hIL-11R on cells), 72 h",[1],0.0216 nM
same,Kd,[2],0.53 nM
same,"ka1 (two-state fit, first step)",[2],2.3e+06
same,"ka2 (two-state fit, second step)",[2],0.00454
same,"kd1 (two-state fit, first step)",[2],0.00692 s⁻¹
same,"kd2 (two-state fit, second step)",[2],0.000972 s⁻¹
same,Kd,[3],58.4 nM
same,"ka1 (two-state fit, first step)",[3],164000
same,"ka2 (two-state fit, second step)",[3],0.0112
same,"kd1 (two-state fit, first step)",[3],0.0925 s⁻¹
same,"kd2 (two-state fit, second step)",[3],0.00129 s⁻¹
B2,"EC50 of proliferation of Ba/F3-hgp130 cells (hgp130 on cells), 72 h",[4],0.0578 nM
same,Kd,[5],0.397 nM
same,koff,[5],0.000142 s⁻¹
same,kon,[5],360000 M⁻¹ s⁻¹
B3,IC50 of sgp130Fc on growth of Ba/F3-gp130 cells induced by 1.7 nM cHIL-6 (blocks cHIL-6 with gp130 on cells),[6],0.324 nM
same,IC50 of sgp130Fc on growth of Ba/F3-gp130 cells induced by 1.7 nM HIL-11 (blocks HIL-11 with gp130 on cells),[7],0.213 nM
same,IC50 of sgp130Fc on growth of Ba/F3-gp130 cells induced by 1.7 nM HIL-6 (blocks HIL-6 with gp130 on cells),[8],0.428 nM
